The values below come from paper PMC4769881 (Molecular cell, 2016).

This data set deals with the molecule itself. The experiment in a line: AUC.

B1: NBB182 (human MLKL N-terminal helix bundle and whole brace, to residue 182), tagless purified protein (domain or fragment, UniProt Q8NB16 1-182, looked up)
chain: MENLKHIITLGQVIHKRCEEMKYCKKQCRRLGHRVLGLIKPLEMLQDQGKRSVPSEKLTTAMNRFKAALEEANGEIEKFSNRSNICRFLTASQDKILFKDVNRKLSDVWKELSLLLQVEQRMPVSPISQGASWAQEDQQDADEDRRAFQMLRRDNEKIEASLRRLEINMKEIKETLRQYLPP
What is called stoichiometry N is the number of molecules, sites or subunits per partner or assembly. With B1, the “stoichiometry N” value turned out to be 2.
